For series [1], the target named is T1, human ASIC1a-Flag (human) (UniProt P78348).
T1 sequence: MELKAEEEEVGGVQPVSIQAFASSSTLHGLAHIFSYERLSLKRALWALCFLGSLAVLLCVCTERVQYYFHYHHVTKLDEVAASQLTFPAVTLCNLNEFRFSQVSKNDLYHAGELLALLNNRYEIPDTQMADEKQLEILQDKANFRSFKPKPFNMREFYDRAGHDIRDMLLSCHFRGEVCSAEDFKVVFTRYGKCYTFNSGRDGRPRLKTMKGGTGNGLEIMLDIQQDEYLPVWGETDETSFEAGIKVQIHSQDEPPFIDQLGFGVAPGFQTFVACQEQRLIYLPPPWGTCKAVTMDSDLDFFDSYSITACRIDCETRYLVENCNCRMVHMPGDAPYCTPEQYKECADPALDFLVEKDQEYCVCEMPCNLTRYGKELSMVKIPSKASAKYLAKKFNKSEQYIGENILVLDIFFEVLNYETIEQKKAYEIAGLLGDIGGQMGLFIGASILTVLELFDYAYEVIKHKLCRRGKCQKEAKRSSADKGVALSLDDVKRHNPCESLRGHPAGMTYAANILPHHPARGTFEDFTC

Series [2] addresses T2, hASIC1a comprising amino acids 12–478 with a Strep Tag II in the N-terminus (human, UniProt P78348-2).
Series [3] deals with the molecule itself. Kind of series: cryo-EM structure; hASIC1a-Nb.C1 complex in DDM, pH 7.4, 20 mM HEPES, 150 mM NaCl, 5 mM CaCl2, 3.8 mg/mL; C3 symmetry imposed.
Series [4] addresses T3, human ASIC1a-Flag (Homo sapiens, ASIC1a (528 aa isoform), UniProt P78348-2).
T3 construct: human acid-sensing ion channel 1a (ASIC1a); this molecule is used for them; also called hASIC1a; hASIC1a-Flag; source: HEK293T / HEK-293 cells, transfected (pcDNA3.1), on cells
Kind of series: immunostaining of cells or tissue; transfected cells on coverslips incubated with Nb (1 nM, 1 hr, on ice) in the medium, washed, fixed, permeabilized; Nb detected by anti-HA, channel by anti-Flag; confocal microscopy. The note with it: one partner purified.

Series [5] addresses T2, hASIC1a comprising amino acids 12–478 …. Briefly: SPR + immunostaining of cells or tissue; equilibrium constant worked out from the smallest kon of the SPR (purified, immobilised hASIC1a) and the upper limit of koff from the live-cell chase (hASIC1a on HEK293 cells). The note with it: one partner purified.
In series [6] the target is T3, human ASIC1a-Flag. Kind of series: immunostaining of cells or tissue; chase: live HEK293 cells transfected with hASIC1a-Flag incubated with 10 nM Nb.C1-HA for 30 min at 18°C, washed, followed for 0-4 hr with a wash each hour, then fixed; Nb.C1 fluorescence normalised to time 0; koff estimated from the lack of decay. The note with it: one partner purified.
Series [7] addresses T4, mouse ASIC3-Flag (Mus musculus, ASIC3, UniProt Q6X1Y6).
T4 construct: mouse acid-sensing ion channel 3 (ASIC3); also called mASIC3; source: transfected cells, on cells
Briefly: immunostaining of cells or tissue; transfected cells on coverslips incubated with Nb (1 nM, 1 hr, on ice) in the medium, washed, fixed, permeabilized; Nb detected by anti-HA, channel by anti-Flag; confocal microscopy. The note with it: one partner purified.

The target in series [8] is T5, chicken ASIC1-Flag (Gallus gallus, ASIC1, UniProt Q1XA76).
T5 construct: chicken acid-sensing ion channel 1 (cASIC1); also called cASIC1; source: transfected cells, on cells
The series is described as above. The note with it: one partner purified.

The target of series [9] is T6, mouse ASIC2a-Flag (Mus musculus, ASIC2a (512 aa isoform), UniProt Q925H0-1).
T6 construct: mouse acid-sensing ion channel 2a (ASIC2a); also called mASIC2a; source: transfected cells, on cells
The description is as above. The note with it: one partner purified.

Series [10] deals with T7, mouse ASIC1a-Flag (Mus musculus, ASIC1a, UniProt Q6NXK8-1).
T7 construct: mouse acid-sensing ion channel 1a (ASIC1a); also called mASIC1a; mASIC1; source: transfected cells, on cells
The description is as above. The note with it: one partner purified.

In series [11] the target is T2, hASIC1a comprising amino acids 12–478 …. Kind of series: SPR; Biacore S200; hASIC1a amine-coupled to a CM5 chip (diluted in sodium acetate pH 5.0, 0.05% DDM); Nb.C1 injected at 0.41-100 nM, 30 µL/min; association 100 or 300 s, dissociation 300 or 3600 s; two protein preparations; global fits to association time courses. The note with it: both partners purified.
For series [12] the target is unchanged. Kind of series: SEC; purified Nb.C1 added to crude membranes of 293 F cells expressing Strep-tagged hASIC1a (4°C, 3 hr) before solubilisation with 1% DDM; Strep Tactin XT affinity purification, then Superdex 200 Increase; peak run on Coomassie-stained SDS-PAGE. The note with it: one partner purified. In general terms: Size exclusion chromatography separates by hydrodynamic size, large species first.

Substitutions are numbered along the chain they refer to. Bounds are passed on as bounds.

Results on 18 molecules are retold here after article PMC8318589, “Structure and analysis of nanobody binding to the human ASIC1a ion channel” (eLife, 2021).

As a reminder, the stoichiometry N is a count of units in the complex or per binding partner. In general, Kd refers to the free concentration of one partner at which half of the binding sites on the other are occupied at equilibrium, for simple one-to-one binding. Usually koff stands for the first-order rate constant of dissociation. A word on the kon: it is a measure of how fast the partners come together. Low readings indicate slower complex formation, high ones faster complex formation.

T6 sequence (Q925H0 whole entry, canonical isoform): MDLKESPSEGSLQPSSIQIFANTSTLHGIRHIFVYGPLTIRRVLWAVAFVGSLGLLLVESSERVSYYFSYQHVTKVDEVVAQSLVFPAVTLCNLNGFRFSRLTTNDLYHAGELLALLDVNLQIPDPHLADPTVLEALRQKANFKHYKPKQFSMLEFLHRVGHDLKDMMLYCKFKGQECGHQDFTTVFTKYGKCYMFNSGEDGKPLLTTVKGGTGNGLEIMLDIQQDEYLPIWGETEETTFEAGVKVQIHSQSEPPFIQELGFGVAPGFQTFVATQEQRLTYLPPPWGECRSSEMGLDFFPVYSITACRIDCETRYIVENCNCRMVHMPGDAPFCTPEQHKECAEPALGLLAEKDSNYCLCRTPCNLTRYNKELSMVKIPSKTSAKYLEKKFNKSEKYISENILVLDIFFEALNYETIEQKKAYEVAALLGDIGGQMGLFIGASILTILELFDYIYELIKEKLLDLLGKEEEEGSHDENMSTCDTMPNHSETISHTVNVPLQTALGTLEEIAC
T4 sequence (Q6X1Y6 whole entry): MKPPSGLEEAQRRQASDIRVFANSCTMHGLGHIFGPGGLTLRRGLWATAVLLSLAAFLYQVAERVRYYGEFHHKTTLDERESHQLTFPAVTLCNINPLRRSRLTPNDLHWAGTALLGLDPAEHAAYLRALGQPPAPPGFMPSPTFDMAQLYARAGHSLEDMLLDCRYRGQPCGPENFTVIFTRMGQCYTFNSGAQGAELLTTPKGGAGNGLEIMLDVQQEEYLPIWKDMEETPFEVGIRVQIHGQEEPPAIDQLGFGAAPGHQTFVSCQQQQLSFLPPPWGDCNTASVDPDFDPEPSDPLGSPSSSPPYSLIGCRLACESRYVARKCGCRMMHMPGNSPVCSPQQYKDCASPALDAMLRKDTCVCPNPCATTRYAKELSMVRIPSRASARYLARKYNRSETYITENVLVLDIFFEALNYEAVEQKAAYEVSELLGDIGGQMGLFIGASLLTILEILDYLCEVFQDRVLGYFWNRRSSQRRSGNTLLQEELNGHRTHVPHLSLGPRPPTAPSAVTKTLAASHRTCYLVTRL

“psalmotoxin-1 (PcTx1) (from UniProt P60514 1-40) (peptide)” displayed a time constant of recovery of pH 6.0-induced currents after 60 s with 10 nM PcTx1, oocytes expressing hASIC1a (two-electrode voltage clamp) in series [1] of 220 s.

B1: 2B-D4 (VHH)
VHH: QVQLVESGGGLVQAGGSLRLSCAASGIAFSRYTMGWYRQAPGKQRELVADFSREGTTRYADAVKGRFTISRDNAKNTVYLEMNSLKPEDTAVYYCNARRPFLGNLANNWGRGTQVTVSS
As to B1, the binding result in series [2] is “binds”.

B2: H7 (VHH)
VHH: QLQLVESGGGLVQPGGSLRLSCAASGGTIDYYTIGWFRQAPGKEREGVSCIISKADSTKYADTVEGRFTISSDKAKNTVYLQMNSLQPEDTGVYFCAAYRVLIAGRNPGCLLNPPAEYDYWGQGTQVTVSS
Regarding B2, the binding result in [2] is given as “binds”.

B3: hASIC1a comprising amino acids 12–478 with a Strep Tag II in the N-terminus (domain or fragment, human, UniProt P78348-2 12-478, looked up)
chain: GVQPVSIQAFASSSTLHGLAHIFSYERLSLKRALWALCFLGSLAVLLCVCTERVQYYFHYHHVTKLDEVAASQLTFPAVTLCNLNEFRFSQVSKNDLYHAGELLALLNNRYEIPDTQMADEKQLEILQDKANFRSFKPKPFNMREFYDRAGHDIRDMLLSCHFRGEVCSAEDFKVVFTRYGKCYTFNSGRDGRPRLKTMKGGTGNGLEIMLDIQQDEYLPVWGETDETSFEAGIKVQIHSQDEPPFIDQLGFGVAPGFQTFVACQEQRLIYLPPPWGTCKAVTMDSDLDFFDSYSITACRIDCETRYLVENCNCRMVHMPGDAPYCTPEQYKECADPALDFLVEKDQEYCVCEMPCNLTRYGKELSMVKIPSKASAKYLAKKFNKSEQYIGENILVLDIFFEVLNYETIEQKKAYEIAGLLGDIGGQMGLFIGASILTVLELFDYAYEVIKHKLCRRGKCQKEAKRS
notes: human acid-sensing ion channel 1a (ASIC1a), residues 12-478 (50 a.a. carboxyl terminal deletion); Trimer in the cryo-EM structure; also called human ASIC1a; recombinant hASIC1a protein; source: HEK293F (FreeStyle 293 F) cells, transfected (pcDNA3.1); crude membranes, solubilised in DDM, purified (Strep Tactin XT, SEC); not shown: Strep Tag II, N-terminal, kept
On to B3, for which, in [3], the “stoichiometry N” value was 3.

B4: Nb D10 (VHH)
VHH: QVQLVESGGGLVQPGGSLRLSCAASGFTFNRATMSWYRQAPGKERELVATIGSFGISTNYTDSVKGRFTISRDNAKNTLYLQMNSLKPEDTAVYYCNARYRSTYPWGQGTQVTVSS
notes: alpaca VHH selected against hASIC1a; source: E. coli WK6, periplasm
As for B4, the binding result in series [4] is on record as “binds”.

B5: Nb C4 (VHH)
VHH: B4 VHH with N30S, T33A, L47M, T61S, L79V, Q82H
notes: alpaca VHH selected against hASIC1a; The name is read out of the printed "C1-4-5"; also called C4 (printed within "C1-4-5"); source: E. coli WK6, periplasm
As to B5, the binding result in series [4] was “binds”.

B6: Nb H10 (VHH)
VHH: B4 VHH with S21T, N30S, I56V, T61A, L79A, Q82Y, S85N, R99H
notes: as for B4
In the case of B6, the binding result in series [4] is “binds”.

B7: Nb.C1 (VHH)
VHH: B4 VHH with G15R, N30S, T33A, L47M, A49S, I56V, T61S, L79V, Q82H, T103S
notes: alpaca VHH selected by phage display against hASIC1a; Expressed from the phagemid pADL-22c; also called Nb.1C; Nb.C1-HA; source: E. coli WK6, periplasm, purified (Ni-NTA); not shown: HA, C-terminal, kept
With B7, the Kd in series [5] is ≤ 0.2 nM. The koff in [6] was ≤ 1.4e-05 s⁻¹. For the same molecule, the binding result in series [7], in series [8], in series [9] and in series [10] was “no binding (tested: 1 nM)” each time. Further, the kon in series [11] was in the range of 68000 to 220000 M⁻¹ s⁻¹. The “stoichiometry N” value in series [12] worked out at 1.

B8: G4-3 (VHH)
VHH: QVQLVESGGGLVQPGGSLRLSCAASGSTLDYYAIGWFRQAPGKEREGVSCISRSGGSTYYADSVKGRFTISRDNAKNTVYLQMNSLKPEDTAVYYCAADRGAVGGIFNSDYDAQNSLPPCSYGMDYWGKGTLVTVSS
B8: the binding result in series [2] was “binds”.

B9: 2B-E6 (VHH)
VHH: QVQLVESGGGLVQPGGSLRLSCAASGRTVSSYVMGWYRQAPGKEREFVASVRWTTGLTYVEDSVKGRFTISRDNTKSTVDLQMNSLKPEDTAIYYCNARPLVMLGPTEAGYWGQGTQVTVSS
As to B9, the binding result in series [2] is “binds”.

B10: G10 (VHH)
VHH: QVQLVESGGGLVQPGGSLRLSCAASGGTLDVYTIGWFRQAPGKEREGLSCLSSSDGSTYYADSVKGRFTISRDNAKNTMYLQMNSLKPEDTAVYYCVAGAWTHVQAMCVTCFGCDWGQGTQVTVVS
With B10, the binding result in series [2] is on record as “binds”.

B11: E9-3 (VHH)
VHH: QLQLVESGGDLVQPGGSLRLTCAASGFTFSSLTMSWHRQALGKERELVAAIGEATGATYYVESVKGRFIISRDNAKNTVFLQMNSLKPEDTAVYYCKAASSSNDYWGQGTQVTVSS
As for B11, in [2], the binding result was “binds”.

B12: F7 (VHH)
VHH: QVQLVESGGGLVMAGGSLSLSCAASGRLFSTWTMGWFRQAPGKEREFVGAIRRVGDSPSYADSVKGRFTISRDSTKNALYLKMNSLKPEDTAVYYCAAKRFGNEYEYWGQGTQVTVSS
For the molecule B12, in series [2], the binding result is recorded as “binds”.

B13: G11 (VHH)
VHH: B12 VHH with V2L, L28T, G35A, V54I, S74N, T75A
Turning to B13, the binding result in series [2] is reported as “binds”.

B14: A12-2 (VHH)
VHH: B12 VHH with V2L
For the molecule B14, the binding result in series [2] is on record as “binds”.

B15: G4 (VHH)
VHH: QLQLVESGGGLVQPGGSLRLTCAASGFALDDYTIGWFRQAPGNEREGVACMHGGGIHIADSLKGRITISRDNAKNTVYLQMNSLKPEDTAVYYCAARLATATRWTCKLSDMDYWGKGTLVTVSS
Turning to B15, the binding result in series [2] was “binds”.

B16: 1A-B1 (VHH)
chain: QLQLVESGGGLVQTGESLRLSCVASGIAFSRYIVGWYRQAPGKERELVASVRRNSGTNYVGDLKGGFFISSKNANNTVYQEMNNLKPADDAVYYCSTARPFLGDLPNNCGYWTQVTVSS
Take B16: in series [2], the binding result is listed as “binds”.

B17: B11 (VHH)
VHH: QLQLVESGGGLVQPGGSLRLSCAASGLTLDNYAIGWFRQVPGKEREDVSCISTSHGSLHYANSVKGRFTISVDAAENTVYLQMNSLNAEDTAVYFCAARGFDSDCSVYGMDFWGKGTPVTVSS
Take B17: the binding result in series [2] is “binds”.
